The values below come from a protein production outcome set (Wang et al. 2014).

The data set in a line: label from the status in PepcDB records.
With “MSSLVGLHYATVLPLAAYLLLAVVILLLAMGRDGAARKTFTASLLMIVLGWIPYIAAFLLLDYSLDEVAKNASDELSPYLRIGAAWSGGGGSLYLFSAFLSLAILLQMLLNKGLNRRAMAVFTLLVLTSMTSATLMGAFGTGPGERGGLGINPVLKNYWVVPHPTTTFLGYSFILVGSVALVLGYYRTGLPIQLLGLAFLTFGLVFGGMWSYETFGWGGYWAWDPVETSQLAVWLATVASIHMIGPLRSLNRGFAAYAASSVFLALYVTRSGVSPLHSFAAESFSAVLLLSASLVMLALSMLLFSEGVGETLEKWKSRLQDARWPPRIAEMNLSNILLTVGSVSIALSALIVYSSLLTPSVLKLVGLDTQPPSFEQGVRFYNRLLIPLALVSLYAVAGYYVSVRAGAKAAYSLFATLTVVLAIMGLATVKNTIIISPLSDTTTNLASATLLAAGSISGSVLLAMSLWMLYGMVKGKVAKSVHTLRIVLEKLVHATMIMILVSVAMSGSYAYNQGYSEEVLVPLGGEVSVMGVTISYEGYDYELHQGTVDLKNNLDPSSAILITAREALNMMDEDLSSTIREYRLASAESQSDRTLQTLLKASASNSEYRGVFTSTRGVADAAVVDVRTGENISNIQTAGETVLQLEDPTLEVTIDPKLDPETGRIEGGALSVVFYPERLVVYGIGSPVSLDPYSYLYVRFREPVEINLDDITVNMEEVVVYSTGGSSIEGVVSGQSVLFEGVAIRVVSGELSFGSMNIELPYQLDRGEFFYFMVYKGQAEVLDDILSSSISDLLESGIAGLAAGEDMDDFNVPRRAPAGVSLRLFMEVNGEPVEADLRFEANGEAIGIHGLVIDTIILRRGLTNVYITVQAPLVSGHFGEYHELMVYYLNEAMNTLRPEEYLALASVMAAGYNIASIVSSPSKERAALEVERATIDLYLLSEKLDEKRSSAAEGIVVSVKIVPGVPLLWLTGVLAGVLLLAMASIHFYLGFRQGRLIDT”, the protein production entry is on record as “failed”.
On to “MFAAAVSFVALLLFTIGLYGVMTSRVGIKMLISIEIMINSAILSIIGIGSYFYSSSVQIDPYVFALFAIAIGVVESAVGLGLLVIVYRKFGKIDISLLKEIRW”, for which the protein production entry is recorded as “failed”.
Next, “MDTVPPRTYNNSNFPEGLPAVSLSDEERARQQRWTPLRVTIWILISAIAGLGWWMLAVRRGETVNGIWFVFAAIGSYFIGYRFYAKYIQDKLVHPDDSRATPAEYDYNGRDFVPTDRRILYGHHFAAIAGAGPLVGPVLSAQMGYLPSTIWIIVGVILAGAVQDYLVLVISMRRGGRSLGQMAREELGRFGGIAALIATLTIMLIIVAILAMVVVNSLAASSWGVWSVGLTIPIALLMGFYLRYLRPGKVFEVSIIGIVLLVLAIASGAWIENTAVASALHLSKPFLAWAIIIYGFIAAVLPVWMLLAPRDYLSTFMKVGVIAMLAISIVIVRPVINVPAMTVYATNGAGPVFSGKLFPFLFVTIACGALSGFHATISSGTTPKLIEKESQARLIGYGGMLMESFVAIMALVAALSVDRGIYFAMNSPAGATGNTVKSAIAYVNSLGLSGVHANANTLTTTAKLVGETSIVSRTGGAPTLAVGLATIMHKIFGGEAMMSFWYHFAIMFEALFILTSVDAGTRVARFMLSDALGNFWPRLKDHSWKVGSWLTTAIMVAGWGSILLMGVTDPLGGINTLFPLFGIANQLLAAVALSICLVIFARAGHTWRLLIIFVPMLFTAIITVYGSWLKIFSPDPKLGYWANHMTYKRAIADGKTSLGQAKNIDEMHTVVGNTAIQGTMSIIFVVCALIVMIVACIRTVQALRGRNIIDTEDPAKPSKIFAPSGLMPTKAERDLQVEWDAFYEEHPELDLESVHKDKEHA”: “failed”; “MLFSSIVFLFYFFPAVLLLYYICSFSRRLQNVVLLFASLVFYAWGDFSFLGIMIVSIIINYILGLLVGKFREKKLLAKFFIFVTCAYNLGMLFVFKYLGFVVKNIDKVGNYKLSIPNIALPIGISYFTFKAISYVVDVYKNKVEAEKNPLNIGLYIAFFPEVISGPISRYVKVGEQIKNREHSWQKFSVGACRFITGLGKKVLISNSVSIIADKVFTMNTNGPVPVTLAWLGSIAYTIQIFFDFSGYSDMVIGLGLMFGFKIDENFNYPYISKSITEFWRRWHISLSSWFRDYIYIPLGGSRVDNKDKLIRNLFIVWVSTGVWHGAEWTFIMWGFLNFVFIALEKVFSFDDLKINPVIKHIYALFIINLGWVLFRSENLIQAGKYVACMFGLRGNAFWSNYTFMFVKENAVIFIAAVILSMPIAKKVNKLVYDKVPGYKILNGVYPIAVLGVFFVCISYLIKGTYNPFIYLKF”: “failed”.
Turning to “MAERTSDPAANDRFYFRQLLSGRDFAGADPIAQQMRNFAYFIGDRETGEAVVVDPAYAADELAAALEADGMRLAGVLVTHHHPDHVGGSMMGFTLKGVAELLEHRSVPVHVNSHEADWVSQVTGIARSELSAHEHGDTISVGAIDIELLHTPGHTPGSQCFLVDGRLVAGDTLFLEGCGRTDFPGGNVDDMFRSLQALAKLPGDPTVYPGHWYSAEPSAPLEEVKRSNYVYRASNLDQWRMLMGG”, the protein production result is “failed”.
